Entries after “also recorded” stand apart in the source; their conditions may differ.
Experiments:
[1] = system: mouse CNV model; assay: Posterior ocular collagen deposition (Col1a staining) in laser-induced CNV mouse model; format: in vivo; conditions: for reduction in collagen deposition (Col1a): IVT D0, 4, 10 and 20
Protocol: (§1) Mice (C57BL/6J, male, 8-10 weeks old) were anesthetized by intraperitoneal injection (135 μL) of a mixture of ketamine hydrochloride (Anesketin; […]) and medetomidine (Domitor; 1 mg/mL) and their pupils dilated with one eye drop (50 μL) Tropicamide (Tropicol™; 5 mg/mL; Thea, Research Papers Clermont-Ferrand, France). Three laser burns were placed in one eye with a green laser at the 9, 12, 3 o'clock positions around the optic disk using a slit lamp delivery system with a hand-held cover slide as a contact lens moisturized with Genteal Gel™ (Novartis, Vilvoorde, Belgium). Each spot was placed with a spot size of 100 μm, laser duration of a 50 milliseconds and a power of 320 mW. […] Finally, 300 μL atipamezole (Antisedan; 5 mg/mL) was injected intraperitoneally to reverse the effect of medetomidine and to reduce sedation time.
(§2) At different time points after lasering, the compounds were administered intravitreally (IVT). The animal was anesthetized with a mixture of ketamine hydrochloride/medetomidine and the eye was treated with a drop of 0.4% oxybuprocaine (Unicaine; Thea Pharma). Intravitreal injections (1 μL) to one eye according to Tables 1 to 3 were performed by using an analytic science syringe (SGE Analytic Science) and glass capillaries with a diameter of 50-70 μm at the end, controlled by the UMP3I Microsyringe Injector and Micro4 Controller (all from World Precision Instruments Inc., Hertfordshire, UK). Finally, atipamezole (Antisedan) was injected intraperitoneally to reverse the effect of medetomidine and to reduce sedation time.
(§3) To analyze the in vivo efficacy of the different compounds, the retina was removed from the dissected posterior segments. These posterior eye cups, which included retinal pigment epithelium (RPE), the choroid and the sclera were stored in phosphate buffered saline (PBS).
To stain for the presence of collagen type 1 (Colla) protein in the laser spots at day 30 after laser, a rabbit anti-collagen antibody (Abcam, 1/270) was used overnight, diluted in Tris-buffered saline (TBS)-Triton 0.5% (v/v) at 4° C. The following day, the tissues were incubated for 2 hours with goat anti rabbit IgG Alexa Fluor 555 (Life Technologies; A-21428), diluted 1/100 in TBS-Triton 0.3% (v/v) at 4° C. The flat mounts of the posterior eye cups were mounted with Prolong Gold with 4′,6-diamidino-2-phenylindole (DAPI, Molecular Probes). Images were obtained using a microscope with a digital camera (Axiocam MrC5; Carl Zeiss, Oberkochen, Germany) at a magnification factor of 20. Morphometric analyses were performed using commercial software (Axiovision; Zeiss, Oberkochen, Germany). The density of collagen deposition was determined by calculating the Colla-positive area as a proportion of the total lesion.
(§4) The mouse CNV model as described in Example 2.1 was used. At different time points after lasering, compounds were administered intraperitoneally (IP), or intravitreally (IVT), as indicated in Table 3.

[2] = system: mouse CNV model; assay: Leukocyte infiltration (CD45 staining) in laser-induced CNV mouse model; format: in vivo
Protocol: as §1, §2, §3
On day 5 after lasering, a rat anti-mouse CD45 and F4/80 antibody ( 1/100; Pharmingen, Erembodegem, Belgium) was used overnight to stain all leukocytes and macrophages, respectively, diluted in Tris-buffered saline (TBS)-Triton 0.3% (v/v). The following day, the tissues were incubated for 2 hours with rabbit anti-rat biotin labeled antibody ( 1/300; DakoCytomation A/S, Copenhagen, Denmark), diluted in TBS-Triton 0.3%. Antibody binding was visualized by fluorescent staining using streptavidin-Alexa-568 ( 1/200; Molecular Probes, Life Technologies, Eugene, Oreg., USA) in TBS-Triton 0.3% for 2 hours. The flatmounts of the posterior eye cups were mounted with Prolong Gold with 4′,6-diamidino-2-phenylindole (DAPI, Molecular Probes). Images were obtained using a microscope with a digital camera
(Axiocam MrC5; Carl Zeiss, Oberkochen, Germany) at a magnification of 20×. Morphometric analyses were performed using commercial software (Axiovision; Zeiss, Oberkochen, Germany). The density of inflammation was determined by calculating the CD45-positive area as a proportion of the total lesion.

[3] = system: mouse CNV model; assay: Macrophage infiltration (F4/80 staining) in laser-induced CNV mouse model; format: in vivo; conditions: day 5 after lasering; IVT D0; compared to IgG; dose not stated
Protocol: as §1
At different time points after lasering, the compounds were administered intravitreally (IVT). The animal was anesthetized with a mixture of ketamine hydrochloride/medetomidine and the eye was treated with a drop of 0.4% oxybuprocaine (Unicaine; Thea Pharma). […]

[4] = system: retinal pigment epithelium (RPE) cell; conditions: Julien et al., Br J Ophthalmol 2014; cited from earlier work
[5] = system: age-related macular edema (AMD); conditions: in vivo; cited from earlier work
[6] = system: mouse CNV model; assay: Pericyte coverage (αSMA staining) in mouse CNV model; format: in vivo; conditions: day 14 after lasering, 25 mg/kg IP 3 times per week
Protocol: as §1, §4
To study pericyte coverage as a marker of vessel maturation, smooth muscle cell actin (SMA) was examined on serial […] paraffin sections. […] The amount of SMA cells present in the lesion was determined by the use of commercial software (Axiovision; Zeiss, Oberkochen, Germany).

[7] = system: retinal ganglion cells (RGCs); conditions: mouse, in vivo, ip, 25 mg/kg
Protocol: To investigate the safety of anti-PlGF and anti-VEGF-R2 on the retinal ganglion cell layer, naive mice (C75Bl/6 or Swiss mice) were injected with 25 mg/kg of anti-PlGF, anti-VEGF-R2 or control IgG 3 times a week for 6 weeks. Afterwards the mice were sacrificed and immunohistochemistry for the neuronal marker NeuN was performed. The samples were incubated overnight with the primary mouse anti-NeuN (Chemicon MAB377) 1/500. As secondary antibody, rabbit anti-mouse biotin-labeled 1/400 (Dako E0646) was added for 45 minutes. Subsequently, the sections were incubated with Streptavidin-HRP 1/100 in TNB for 30 minutes, followed by amplification with Biotin (kit NEL700) 1/50 in amplification buffer for 8 minutes and again incubated with Streptavidin-HRP 1/100 for 30 minutes (all from Perkin Elmer, Life Sciences). Hereafter, a 3,3-diaminobenzidine (DAB) staining (Fluka-Sigma Aldrich) was performed by adding peroxide to the tissue and a counterstaining was done with Harris hematoxylin (Merck). Viable RGCs were quantified 2 times on the same serial section on a defined length of the retina (250 μm) on either side of the optic nerve.

[8] = system: retinal ganglion cells (RGCs); assay: Neuroretinal safety in naive mice: apoptotic cells in ganglion cell layer (TUNEL staining); format: in vivo, mouse; conditions: 25 mg/kg IP 3 times per week
Protocol: A TUNEL (terminal deoxynucleotidyl transferase-mediated biotinylated UTP nick end labeling) staining was performed to investigate apoptotic signal. Serial sections were deparaffinized, washed and treated with proteinase K ( 1/500; Qiagen, Venlo, the Netherlands) for 15 minutes. Next, sections are incubated with the TUNEL reaction mixture (In Situ Cell Death Detection Kit, POD; Roche, Mannheim, Germany) at 37° C. for 1 hour. Afterwards, the slides were mounted with Prolong Gold containing DAPI (Molecular Probes). Each section was scanned systematically from the temporal to the nasal or a serrata for fluorescent cells indicative of apoptosis. […]

[9] = day 30, equimolar comparison FIG. 2B: 5D11D4 3.1 μg, DC101 3.1 μg, aflibercept 2.4 μg, TAAC 4 μg, vs IgG
[10] = day 5, equimolar comparison FIG. 1B: 5D11D4 3.1 μg, DC101 3.1 μg, aflibercept 2.4 μg, TAAC 4 μg, vs IgG
[11] = day 30, repeated IVT, 3.1 μg (FIG. 2A)
[12] = day 5, equimolar comparison FIG. 1B (5D11D4 3.1 μg, aflibercept 2.4 μg)
[13] = repeat experiment (FIG. 4), day 30, 3.1 μg/eye, compared to PBS

**Q.** What does the source list for `CC1(C)O[C@@H]2C[C@H]3[C@@H]4CCC5=CC(=O)C=C[C@]5(C)[C@@]4(F)[C@@H](O)C[C@]3(C)[C@]2(C(=O)CO)O1` [TAAC, triamcinolone acetonide, reference compound]?
**A.** effect on collagen deposition, in words [1, 9]: no effect; reduction in collagen deposition (Col1a) ([1]; repeat experiment (FIG. 4), day 30, 40 μg/eye, compared to PBS): 49%; effect on leukocyte infiltration (CD45), in words [2, 10]: no effect

**Q.** With “aflibercept: multispecific inhibitor capturing VEGF-A, VEGF-B and PlGF; tradename Eylea®, Bayer” as the molecule, how does the “decrease of infiltration of macrophages (F4/80)” value [3] read?
**A.** 52%

**Q.** And the “effect on collagen deposition, in words” value [1, 9]?
**A.** no effect; also recorded: did not show any anti-fibrotic effects

**Q.** What about the “effect on collagen deposition, in words” value ([1]; day 30, repeated IVT, 2.4 μg (FIG. 2A)) of the same molecule?
**A.** no effect on collagen deposition

**Q.** What about the “effect on collagen deposition, in words” value [1, 11] of the same molecule?
**A.** did not show any anti-fibrotic effects

**Q.** And the “effect on collagen deposition, in words” value ([1]; day 30, repeated IVT, 20 μg (FIG. 2A))?
**A.** no effect on collagen deposition

**Q.** And the “effect on posterior ocular fibrosis, summary statement” value ([1]; laser-induced CNV, dose not stated)?
**A.** did not reduce posterior ocular fibrosis

**Q.** What about the “effect on collagen deposition / fibrosis, in words” value ([1]; repeat experiment (FIG. 4), day 30, equimolar amount 2.4 μg/eye, compared to PBS) of the same molecule?
**A.** did not reduce fibrosis

**Q.** What about the “effect on RPE cell death, in words” value [4] of the same molecule?
**A.** increase retinal pigment epithelium (RPE) cell death

**Q.** And the “effect on inflammation in laser-induced CNV, summary statement” value ([2]; comparable reduction at comparable dose, dose not stated)?
**A.** able to reduce inflammation

**Q.** What about the “reduction in leukocyte infiltration (CD45)” value (shortened to “reduction … (CD45)”) [2, 12] of the same molecule?
**A.** 50%

**Q.** And the “effect on leukocyte infiltration (CD45), in words” value (“effect on leukocyte infiltration” for short) ([2]; day 5 after lasering, IVT D0, 2.4 μg, vs IgG (FIG. 1A))?
**A.** comparable effects

**Q.** And the “effect on leukocyte infiltration” value ([2]; day 5 after lasering, IVT D0, 20 μg, vs IgG (FIG. 1A))?
**A.** comparable effects

**Q.** What about the “reduction … (CD45)” value ([2]; day 5 after lasering, single IVT D0, 2.4 μg, compared to IgG) of the same molecule?
**A.** approximately 50%

**Q.** And the “reduction … (CD45)” value ([2]; day 5 after lasering, single IVT D0, 20 μg, compared to IgG)?
**A.** approximately 50%

**Q.** With “bevacizumab: antibody binding all VEGF-A isoforms” as the molecule, how does the “patients developing a posterior fibrotic scar” value [5] read?
**A.** 24.7%

**Q.** Which “patients developing a posterior fibrotic scar” value [5] does the source give for “ranibizumab: antibody fragment binding all VEGF-A isoforms” here?
**A.** 24.7%

B1: 5D11D4: murine anti-murine PlGF-neutralizing antibody; heavy chain SEQ ID NO:12, light chain SEQ ID NO:13 (antibody, listed as Mus musculus, V domains shown)
VH: QVQLQQPGAELVRPGASVKLSCKASGYTFTNYWINWVKQRPGQGLEWIGNIYPSDSFTNYNQKFKDKATLTVDKSSSTAYMHLSSPTSDDSAVYYCTRDYRYDAVYALDYWGQGTSVTVSS
VL: QIVLTQSPAIMSASPGEKVTITCSASSSVSFIHWFQQKPGTSPKLWIYGTSNLASGVPARFSGSGSGTSSSLTISRMEAEDAATYYCQQRSRYPYTFGGGTKLEIK
modifications: VH 5D11D4; VL 5D11D4
**Q.** Which “αSMA-positive area versus control IgG, in words” value [6] does the source give for B1 here?
**A.** increased the αSMA (smooth muscle cell actin) positive area

**Q.** What about the “increase in pericyte-covered vessels” value ([6]; vs control IgG) of the same molecule?
**A.** 35%

**Q.** What about the “RGCs/retinal area versus other treatment groups, in words” value [7] of the same molecule?
**A.** not significantly different

**Q.** What about the “effect on RGC density, in words” value [7] of the same molecule?
**A.** did not induce any alteration

**Q.** What about the “ganglion cell density (RGC/retinal area)” value [7] of the same molecule?
**A.** 4600 RGC/retinal area

**Q.** And the “decrease of infiltration of macrophages (F4/80)” value [3]?
**A.** 48%

**Q.** What about the “effect on collagen deposition, in words” value [1, 9] of the same molecule?
**A.** delays the process of wound healing; also recorded: decreased collagen deposition

**Q.** What about the “effect on collagen deposition, in words” value ([1]; day 30, repeated IVT, 1.5 μg (FIG. 2A)) of the same molecule?
**A.** decreased collagen deposition

**Q.** What about the “effect on collagen deposition, in words” value [1, 11] of the same molecule?
**A.** decreased collagen deposition

**Q.** And the “reduction in collagen deposition (Col1a)” value ([1]; day 30 after lasering, 1.5 μg, compared to IgG)?
**A.** 43%

**Q.** And the “reduction in collagen deposition (Col1a)” value ([1]; day 30 after lasering, 3.1 μg, compared to IgG)?
**A.** 44%

**Q.** What about the “effect on collagen deposition / fibrosis, in words” value [1, 13] of the same molecule?
**A.** significantly decreased collagen deposition

**Q.** What about the “reduction in collagen deposition (Col1a)” value [1, 13] of the same molecule?
**A.** 44%

**Q.** What about the “apoptotic cells per retinal area versus control IgG, in words” value ([8]; C57Bl/6 mice, after 6 weeks) of the same molecule?
**A.** comparable

**Q.** And the “apoptotic cells per retinal area in the ganglion cell layer (TUNEL)” value ([8]; C57Bl/6 mice, after 6 weeks, control IgG 16±2)?
**A.** 20±4 apoptotic cells per retinal area

**Q.** And the “effect on apoptotic cells / apoptotic rate, in words” value ([8]; Swiss mice (Rd gene))?
**A.** did not induce any alteration

**Q.** And the “reduction … (CD45)” value [2, 12]?
**A.** 50%

**Q.** And the “effect on leukocyte infiltration” value [2, 10]?
**A.** decreased leukocyte infiltration

**Q.** What about the “effect on leukocyte infiltration” value ([2]; day 5 after lasering, IVT D0, 1.5 μg, vs IgG (FIG. 1A)) of the same molecule?
**A.** decreased leukocyte infiltration

**Q.** And the “effect on leukocyte infiltration” value ([2]; day 5 after lasering, IVT D0, 3.1 μg, vs IgG (FIG. 1A))?
**A.** decreased leukocyte infiltration

**Q.** And the “reduction … (CD45)” value ([2]; day 5 after lasering, single IVT D0, 1.5 μg, compared to IgG)?
**A.** 36%

**Q.** And the “reduction … (CD45)” value ([2]; day 5 after lasering, single IVT D0, 3.1 μg, compared to IgG)?
**A.** 46%

Reference: patent US20190031762A1, “POSTERIOR OCULAR FIBROSIS INHIBITION BY ANTAGONIZING PLACENTAL GROWTH FACTOR” (THROMBOGENICS NV, priority 2016, published 2019)
